Assay results reported in patent EP2970447B1 (Eli Lilly and Company, dated 2018).

What was measured:
Experiment in all cases: SPR (Biacore 2000), antibody captured on Protein A, chemokine in solution, 25°C
human Gro-alpha (CXCL1) = molecular target: T1, human Gro-alpha (CXCL1) (human, UniProt P09341 35-107)
T1 construct: also called human CXCL1(Gro alpha)
T1 sequence: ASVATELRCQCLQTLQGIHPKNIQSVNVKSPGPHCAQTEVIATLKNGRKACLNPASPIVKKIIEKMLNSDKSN

human Gro-gamma (CXCL3) = molecular target: T2, human Gro-gamma (CXCL3) (human, UniProt P19876 35-107)
T2 construct: also called human CXCL3 (Gro gamma)
T2 sequence: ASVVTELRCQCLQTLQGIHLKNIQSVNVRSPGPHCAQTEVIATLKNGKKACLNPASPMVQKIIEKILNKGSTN

human ENA-78 (CXCL5) = molecular target: T3, human ENA-78 (CXCL5) (human, UniProt P42830 41-114)
T3 construct: also called human CXCL5 (ENA-78)
T3 sequence: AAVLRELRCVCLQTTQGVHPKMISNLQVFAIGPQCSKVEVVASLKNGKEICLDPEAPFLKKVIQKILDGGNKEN

human GCP-2 (CXCL6) = molecular target: T4, human GCP-2 (CXCL6) (human, UniProt P80162 40-114)
T4 construct: also called human CXCL6 (GCP-2)
T4 sequence: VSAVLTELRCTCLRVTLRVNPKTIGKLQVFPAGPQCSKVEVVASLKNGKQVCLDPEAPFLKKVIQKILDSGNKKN

human NAP-2 (CXCL7) = molecular target: T5, human NAP-2 (CXCL7) (human, UniProt P02775 59-128)
T5 construct: also called human CXCL7 (NAP-2)
T5 sequence: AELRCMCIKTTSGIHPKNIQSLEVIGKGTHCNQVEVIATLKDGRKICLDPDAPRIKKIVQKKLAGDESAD

human IL-8 (CXCL8) = molecular target: T6, human IL-8 (CXCL8) (human, UniProt P10145 28-99)
T6 construct: also called human CXCL8 (IL-8); wild type human CXCL8
T6 sequence: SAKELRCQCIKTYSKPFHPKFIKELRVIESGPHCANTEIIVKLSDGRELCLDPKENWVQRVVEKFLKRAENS

B1: Antibody 2 (antibody, human IgG4 S228P, kappa, V domains shown)
VH: QVQLVQSGAEVKKPGASVKVSCKASGYEFTSYWIHWVRQAPGQGLEWMGNISPNSGSANYNEKFKSRVTMTRDTSTSTVYMELSSLRSEDTAVYYCAREGPYSYYPSRQYYGSDLWGQGTLVTVSS
VL: EIVLTQSPATLSLSPGERATLSCRASQSISNNLHWYQQKPGQAPRLLIYYTSRSVSGIPARFSGSGSGTDFTLTISSLEPEDFAVYYCGQNNEWPEVFGGGTKVEIKR
notes: Full-length antibody expressed in NS0 cells
- koff (human Gro-alpha (CXCL1)): 1.53e-05 s⁻¹
- koff (human Gro-gamma (CXCL3)): 1.76e-05 s⁻¹
- koff (human ENA-78 (CXCL5)): 1.51e-05 s⁻¹
- koff (human GCP-2 (CXCL6)): 6.11e-05 s⁻¹
- koff (human NAP-2 (CXCL7)): 2.18e-05 s⁻¹
- koff (human IL-8 (CXCL8)): 1.24e-05 s⁻¹
